B1: PAIP1 peptide 126-141 (Polyadenylate-binding protein-interacting protein 1), 16-mer library wild type / PABPC1 PABC (PABPC1 PABC domain, residues 544-623) (parent)
chain 1: SKLSVNAPEFYPSGYS
chain 2: PLTASMLASAPPQEQKQMLGERLFPLIQAMHPTLAGKITGMLLEIDNSELLHMLESPESLRSKVDEAVAVLQAHQAKEAA

Variants of: B1
Assay: proteomic peptide phage display deep mutational scan (ProP-PD DMS): M13 P8 16-mer library selected against immobilised GST-tagged bait for four days (rounds), NGS of the eluted pools per day and pseudo-replica
Details: with PABPC1 PABC (PABPC1 PABC domain, residues 544-623); bait immobilised on MaxiSorp plates (10 µg), library pre-cleared on GST, 2 h binding at 4 °C, five washes; one round per day, days 1-4; value from days 2 and 3; keep out of graded; scale: average fractional NGS count over selection days 2 and 3

Row | Variant | screen value
1 | chain 1 SKLSVNAPEFYPSMYS | 0.000578
2 | chain 1 SKLSVGAPEFYPSGYS | 0.000194
3 | chain 1 SKLSVRAPEFYPSGYS | 0.000467
4 | chain 1 SKLSVWAPEFYPSGYS | 0.000917
5 | chain 1 SKLSVFAPEFYPSGYS | 0.000327
6 | chain 1 SKLSVTAPEFYPSGYS | 0.000385
7 | chain 1 SKLSVEAPEFYPSGYS | 0
8 | chain 1 SKLSVHAPEFYPSGYS | 0.000862
9 | chain 1 SKLSVAAPEFYPSGYS | 0.000611
10 | chain 1 SKLSVYAPEFYPSGYS | 0.000705
11 | chain 1 SKLSVPAPEFYPSGYS | 0
12 | chain 1 SKLDVNAPEFYPSGYS | 0
13 | chain 1 SKLGVNAPEFYPSGYS | 0.000919
14 | chain 1 SKLFVNAPEFYPSGYS | 0.000754
15 | chain 1 SKLNVNAPEFYPSGYS | 8.32e-05
16 | chain 1 SKLAVNAPEFYPSGYS | 0.00227
17 | chain 1 SKLLVNAPEFYPSGYS | 0.000589
18 | chain 1 SKLSVNQPEFYPSGYS | 0.00119
19 | chain 1 SKLSVNSPEFYPSGYS | 0.000407
20 | chain 1 SKLSVNVPEFYPSGYS | 0.000178
21 | chain 1 SKLSVNNPEFYPSGYS | 0.000551
22 | chain 1 SKLSVNGPEFYPSGYS | 0.000863
23 | chain 1 SKLSVNAPEFYVSGYS | 5.13e-05
24 | chain 1 SKLSVNAPEFYNSGYS | 8.81e-05
25 | chain 1 SKLSVNAPEFYMSGYS | 0.000643
26 | chain 1 SKLSVNAPEFYLSGYS | 0.00211

Row | Variant | screen value
27 | chain 1 SKLSVNAPEFYESGYS | 0.000484
28 | chain 1 SKLSVNAPEFYYSGYS | 0.00157
29 | chain 1 SKLSVNAPEFYRSGYS | 4.76e-05
30 | chain 1 SKVSVNAPEFYPSGYS | 0.000373
31 | chain 1 SKISVNAPEFYPSGYS | 0.00043
32 | chain 1 SKPSVNAPEFYPSGYS | 9.03e-05
33 | chain 1 SKWSVNAPEFYPSGYS | 0.000852
34 | chain 1 SKLSVNAPSFYPSGYS | 0.00129
35 | chain 1 SKLSVNAPDFYPSGYS | 0.000746
36 | chain 1 SKLSVNAPLFYPSGYS | 0.000721
37 | chain 1 SKLSVNAPQFYPSGYS | 0.000332
38 | chain 1 SKLSVNAPVFYPSGYS | 0.000182
39 | chain 1 SKLSVNAPKFYPSGYS | 0.000266
40 | chain 1 SKLSVNAPTFYPSGYS | 0.00117
41 | chain 1 SKLSVNAPFFYPSGYS | 0.00034
42 | chain 1 SWLSVNAPEFYPSGYS | 0.000491
43 | chain 1 SVLSVNAPEFYPSGYS | 0.000896
44 | chain 1 SALSVNAPEFYPSGYS | 0.000319
45 | chain 1 SNLSVNAPEFYPSGYS | 0.000212
46 | chain 1 SGLSVNAPEFYPSGYS | 0.000321
47 | chain 1 SFLSVNAPEFYPSGYS | 0.000245
48 | chain 1 SILSVNAPEFYPSGYS | 0
49 | chain 1 SPLSVNAPEFYPSGYS | 0.00022
50 | chain 1 SKLSVNAPEDYPSGYS | 0
51 | chain 1 SKLSVNAPEQYPSGYS | 0

The remaining lines, values ahead:

Row | screen value | Variant
52 | 0.000535 | chain 1 SKLPVNAPEFYPSGYS
53 | 0.00694 | chain 1 SKLQVNAPEFYPSGYS
54 | 0.000332 | chain 1 SKLSVNAPEFSPSGYS
55 | 0.000962 | chain 1 SKLSVNAPEFAPSGYS
56 | 0.000612 | chain 1 SKLSVNAPEFHPSGYS
57 | 0.000574 | chain 1 SKLSVNAPEFIPSGYS
58 | 0.000586 | chain 1 SKLSVNAPEFFPSGYS
59 | 0.00111 | chain 1 SKLSVNAPEFQPSGYS
60 | 0.000603 | chain 1 SKLSVNAPEFDPSGYS
61 | 0.000552 | chain 1 SKLSVNAPEFRPSGYS
62 | 0.000309 | chain 1 SKLSVNAPEFNPSGYS
63 | 0.00117 | chain 1 SKLSVNAPEFLPSGYS
64 | 0.00109 | chain 1 SKLSVNAPEFVPSGYS
65 | 0.000142 | chain 1 SKLSVNAPEFTPSGYS
66 | 0.00077 | chain 1 SKLSQNAPEFYPSGYS
67 | 0.000169 | chain 1 SKLSMNAPEFYPSGYS
68 | 0.000262 | chain 1 SKLSRNAPEFYPSGYS
69 | 0.00056 | chain 1 SKLSSNAPEFYPSGYS
70 | 0.000152 | chain 1 SKLSNNAPEFYPSGYS
71 | 0.000215 | chain 1 SKLSKNAPEFYPSGYS
72 | 0.00187 | chain 1 SKLSPNAPEFYPSGYS
73 | 4.28e-05 | chain 1 SKLSVNAPEFYPGGYS

Row | screen value | Variant
74 | 0 | chain 1 SKLSVNAPEFYPQGYS
75 | 0.000419 | chain 1 SKLSVNAPEFYPMGYS
76 | 0.00035 | chain 1 SKLSVNAPEFYPYGYS
77 | 0 | chain 1 SKLSVNAPEFYPPGYS
78 | 0.000161 | chain 1 SKLSVNAPEFYPEGYS
79 | 0.000367 | chain 1 SKLSVNAPEFYPHGYS
80 | 0.000936 | chain 1 SKLSVNAPEFYPIGYS
81 | 0.00287 | chain 1 SKLSVNAPEFYPNGYS
82 | 0.000235 | chain 1 SKLSVNAPEFYPLGYS
83 | 7.69e-05 | chain 1 SKLSVNAPEFYPSGIS
84 | 0.000396 | chain 1 SKLSVNAPEFYPSGWS
85 | 0.000589 | chain 1 SKLSVNAPEFYPSGFS
86 | 0.000411 | chain 1 SKLSVNAPEFYPSGQS
87 | 0.000264 | chain 1 SKLSVNAPEFYPSGHS
88 | 4.17e-05 | chain 1 SKLSVNAPEFYPSGMS
89 | 0.00124 | chain 1 SKLSVNAPEFYPSGSS
90 | 0.000741 | chain 1 SKLSVNAPEFYPSGVS
91 | 0.000221 | chain 1 SKLSVNAPEFYPSGLS
92 | 0.00083 | chain 1 SKLSVNAPEFYPSGKS
93 | 0.000304 | chain 1 SKLSVNAPEFYPSGNS
94 | 7.22e-05 | chain 1 SKLSVNAPEFYPSGES

Source: publication PMC12102759
